T1: recombinant human interleukin-4 (human, UniProt P05112 25-153)
T1 construct: Recombinant human IL-4 applied in solution over antibody captured by anti-human IgG (BIAcore); also called rhIL-4; human IL-4
T1 sequence (looked up): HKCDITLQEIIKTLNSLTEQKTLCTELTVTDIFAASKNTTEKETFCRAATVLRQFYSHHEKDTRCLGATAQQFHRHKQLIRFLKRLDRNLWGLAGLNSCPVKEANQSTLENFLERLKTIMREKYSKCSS


Assays:
[1] = molecular target: T1, recombinant human interleukin-4; assay: SPR (BIAcore 2000), mAb captured on anti-human IgG CM-5 chip, rhIL-4 as analyte
Experimental: Affinity measurements of human mAbs of the present invention are carried on a BIAcore™ 2000 instrument. […] A subsequent application of rhIL-4 results in a further change of the refractory properties, which allows determination of the association rate (Kₒₙ, on rate) as well as the dissociation rate (Koff, off rate) and the […] of these two, the affinity (Kd, dissociation constant, given in pM), according to the BIAevaluation 3.0 software.

[2] = molecular target: T1, recombinant human interleukin-4; assay: cell-based or functional assay

Row | Kd [1] | BAF cell proliferation IC50 [2] | IL-4 induced CD23 IC50 [2] | IL-4 induced IgE IC50 [2] | Binder
1 | 0.089 nM | 0.084 nM | 0.873 nM | 7.81 nM | Example 3 antibody comprising SEQ ID NO:17 and SEQ ID NO:18 (antibody, human IgG1, V domains shown, also called Ex. 3) VH: QVQLVESGGGMVQPGRSLRLSCAASGFTLSSYGMHWVRQAPGKGLEWVTVIWYDGNNQYYADSVKGRFTISRDNSKNTLYLQMNSLRAEDTAVYYCAREGSWSPDIFDIWGQGTMVTVSS VL: AIQLTQSPSSLSASVGDRVTITCRASQGISSYLAWYQQKPGKAPKLLIYDASSLESGVPSRFSGSGSGTDFTLTISSLQPEDFATYYCQQFNSYPITFGQGTRLEIKR
2 | 0.084 nM | 0.218 nM | 2.83 nM | 9.94 nM | Example 5 antibody comprising SEQ ID NO:33 and SEQ ID NO:34 (antibody, human IgG1, V domains shown, also called Ex. 5) VH: QVQLVESGGGVVQPGRSLRLSCAASGFTFSCCGMHWVRQAPGKGLEWVAVIWYDGSNKYYADSVKGRFTISRDTSKNTLYLQMNSLRAEDTAVYYCATDSSGSFYEYFQHWGQGTLVTVSS VL: AIQLTQSPSSLSASVGDRVTITCRASQGINSALAWYQQKPGKAPKLLIYDASSLESGVPSRFSGSGSGTDFTLTISSLQPEDFATYYCQQFNSYPYTFGQGTKLEIKR
3 | 0.043 nM | 0.03 nM | 0.334 nM | 2.81 nM | Example 1 antibody comprising SEQ ID NO:1 and SEQ ID NO:2 (human IL-4 specific monoclonal antibody) (antibody, human IgG1, V domains shown, also called Ex. 1; mAb as defined by CDRs as described in claim 2a)) VH: QVQLVESGGGVVQPGRSLRLSCAASGFTFSSYAMHWVRQAPGKGLEWVTFIWDDGSFKYYAESVKGRFTISRDNSKNTLYLQMNSLRAEDTAVYYCAREGSWSPDIFDIWGQGTMVTVSS VL: AIQLTQSPSSLSASVGDRVTITCRASQGISRALAWYQQKPGKAPKLLIYDASSLESGVPSRFSGSGSGTDFTLTISSLQPEDFATYYCQQFNSYPITFGQGTRLEIKR
4 | 0.059 nM | 0.05 nM | 0.463 nM | 5.34 nM | Example 2 antibody comprising SEQ ID NO:9 and SEQ ID NO:10 (antibody, human IgG1, V domains shown, also called Ex. 2) VH: QVQLVESGGGVVQPGRSLRLSCAASGFTLSSFGMHWVRQAPGKGLEWVAVIWYDGSNEYYADSVKGRFTTSRDNSKNTLYLQMNSLRAEDTAVYYCAREGSWSPDIFDIWGQGTMVTVSS VL: AIQLTQSPSSLSASVGDRVTITCRTSQGIRSALAWYQQNPGKAPKLLIYDASSLESGVPSRFSGSGSGTDFTLTISSLQPEDFATYYCQQFNSYPVTFGQGTRLEIKR
5 | 0.066 nM | 0.688 nM | 0.848 nM | 7.57 nM | Example 4 antibody comprising SEQ ID NO:25 and SEQ ID NO:26 (antibody, human IgG1, V domains shown, also called Ex. 4) VH: QVQLVQSGAEVKKPGSSVKVSCKASGDTFSSYAISWVRQAPGQGFEWMGGIIPVIGTVNYEERFQDRVTITADNSTSTAYMELTSLRSEDTAVYFCGREEGFLDYWGQGTLVTVSS VL: AIQLTQSPSSLSASVGDRVTITCRASQGISSALAWYQQKPGKAPKLLIYDASSLESGVPSRFSGSGSGTDFTLTISSLQPEDFATYYCQQFNSYPLLTFGGGTKVEIKR

Reference: US20100254993A1 (Novartis, published 2010)
